From PMC11931385, “Structural and functional analysis of cancer-associated missense variants in the retinoblastoma protein pocket domain” (The Journal of Biological Chemistry, 2025)
Changes are numbered by the printed parent chain. Numbers in names are those of the source. No end group written: not given here. TMR = tetramethyl rhodamine dye

T1: Rb^P R741H (human, UniProt P06400 380-788, R741H)
T1 construct: also called variant 69
T1 sequence (looked up): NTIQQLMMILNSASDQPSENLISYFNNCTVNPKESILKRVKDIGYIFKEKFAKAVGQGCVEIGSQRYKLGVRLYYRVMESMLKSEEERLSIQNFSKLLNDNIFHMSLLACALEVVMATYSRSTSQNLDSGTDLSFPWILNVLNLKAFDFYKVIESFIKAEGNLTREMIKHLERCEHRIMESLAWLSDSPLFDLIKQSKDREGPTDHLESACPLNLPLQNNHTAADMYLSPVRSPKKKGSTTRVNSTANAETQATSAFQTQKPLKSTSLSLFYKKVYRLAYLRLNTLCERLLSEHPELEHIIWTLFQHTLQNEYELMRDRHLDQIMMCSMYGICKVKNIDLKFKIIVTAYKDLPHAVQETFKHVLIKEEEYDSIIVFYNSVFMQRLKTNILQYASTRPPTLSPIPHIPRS

T2: Rb^P R621H (human, UniProt P06400 380-788, R621H)
T2 construct: also called variant 42
T2 sequence (looked up): T1 sequence (looked up) with R242H, H362R

T3: Rb^P R741C (human, UniProt P06400 380-788, R741C)
T3 construct: also called variant 68
T3 sequence (looked up): T1 sequence (looked up) with H362C

T4: Rb^P H585Y (human, UniProt P06400 380-788, H585Y)
T4 construct: also called variant 33
T4 sequence (looked up): T1 sequence (looked up) with H206Y, H362R

T5: Rb^P M546I (human, UniProt P06400 380-788, M546I)
T5 construct: also called variant 25
T5 sequence (looked up): T1 sequence (looked up) with M167I, H362R

B1: TMR-E2F1^TD, peptide of the E2F1 transactivation domain (peptide)
peptide: {TMR}-GEGIRDLFDCDFGDLTPLD
notes: also called E2F^TD; source: synthetic peptide, bought: GenScript
B2: TMR-E7^LxCxE, LxCxE peptide of the E7 oncoprotein from HPV (peptide)
peptide: DLYCYEQLN
modifications: also: TMR label, position not given here
notes: source: synthetic peptide, bought: GenScript

Legend:
Test in all cases: fluorescence polarisation; 37 °C, after the 25 °C reading ramped over 7 min to 37 °C and 2 min incubation; unlabeled Rb^P against 1.5 nM TMR-E2F1^TD or 7.5 nM TMR-E7^LxCxE; 25 mM Tris pH 8.0, 200 mM NaCl, 1 mM DTT, 0.1% Tween-20; apparent Kd
Conditions in all cases: both partners purified
[1] = target: T1, Rb^P R741H
[2] = target: T2, Rb^P R621H
[3] = target: T3, Rb^P R741C
[4] = target: T4, Rb^P H585Y
[5] = target: T5, Rb^P M546I

Binder | Kd [1] [nM] | Kd [2] [nM] | Kd [3] [nM] | Kd [4] [nM] | Kd [5] [nM]
B1 | 41 | 48 | 64 | 92 | 21
B2 | 21 | 18 | 23 | 18 | 13
